Measured values reported in paper PMC11997583.

Key:
[1] = GFP/γH2AX colocalisation foci after damage, U2OS; conditions: glycan lost; control: GFP-YTHDC1-WT, no inhibitor
[2] = CCK-8 assay, Zeocin doses and durations; conditions: glycan lost; control: YTHDC1-WT
[3] = FRAP of GFP-YTHDC1 puncta, Zeocin vs untreated; conditions: glycan lost; control: GFP-YTHDC1-WT
[4] = γH2AX foci count after Zeocin release; conditions: glycan lost; control: GFP-YTHDC1-WT
[5] = GFP foci count after Zeocin or IR, U2OS; conditions: glycan lost; control: GFP-YTHDC1-WT
[6] = neutral comet assay after Zeocin; conditions: glycan lost; control: YTHDC1-WT rescue after siYTHDC1
[7] = FRAP of GFP-YTHDC1 puncta, basal conditions; conditions: glycan lost; control: GFP-YTHDC1-WT
[8] = Rad51/γH2AX co-staining after Zeocin, U2OS; conditions: glycan lost; control: YTHDC1-WT rescue after siYTHDC1
[9] = chromatin fractionation, anti-Flag blot, Zeocin, 293T; conditions: glycan lost; control: YTHDC1-WT

| Substance | localisation_or_trafficking [1] | other: cell survival after Zeocin [2] | other: Zeocin-induced change in FRAP rate [3] | other: persisting γH2AX foci after damage [4] | localisation_or_trafficking [5] | other: DSB repair kinetics [6] | other: condensate dynamics (FRAP recovery) [7] | other: Rad51 recruitment to DSBs [8] | localisation_or_trafficking [9] |
| --- | --- | --- | --- | --- | --- | --- | --- | --- | --- |
| YTHDC1: OSMI-1 | decreases |  |  |  |  |  |  |  |  |
| YTHDC1: S396A | decreases | decreases | abolishes | increases | decreases | decreases | increases | decreases | abolishes |
